Paper PMC3659392 (Science translational medicine, 2012)

Key:
DprE1 [1] = target: T1, DprE1 (Mycolicibacterium smegmatis, UniProt A0R607); assay: crystal structure of covalent adduct; format: biochemical
T1 sequence (A0R607 1-460): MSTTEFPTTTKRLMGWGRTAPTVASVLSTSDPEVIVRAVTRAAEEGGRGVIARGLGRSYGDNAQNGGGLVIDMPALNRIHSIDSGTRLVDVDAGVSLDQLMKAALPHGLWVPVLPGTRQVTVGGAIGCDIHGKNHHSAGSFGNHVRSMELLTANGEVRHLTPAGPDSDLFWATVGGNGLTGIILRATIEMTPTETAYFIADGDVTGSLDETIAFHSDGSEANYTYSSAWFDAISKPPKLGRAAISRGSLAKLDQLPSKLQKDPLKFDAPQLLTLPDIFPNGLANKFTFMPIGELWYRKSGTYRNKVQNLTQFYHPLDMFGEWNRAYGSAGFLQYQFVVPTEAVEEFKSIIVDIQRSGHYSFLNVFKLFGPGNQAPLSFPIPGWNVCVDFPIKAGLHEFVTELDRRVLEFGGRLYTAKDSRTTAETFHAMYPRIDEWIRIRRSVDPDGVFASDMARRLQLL

DprE1 [2] = target: T1, DprE1; assay: DCPIP enzyme assay, […] min incubation; format: biochemical
purified protein [3] = substrate: O=C1C(Cl)=CC(=Nc2ccc(O)cc2)C=C1Cl; assay: purified protein; details: FAD electron acceptor re-oxidizing reduced FAD
purified protein [4] = substrate: CC(C)=CCC/C(C)=C/CC/C(C)=C/COP(=O)(O)O[C@@H]1O[C@H](CO)[C@@H](O)[C@H]1O; assay: purified protein; details: FAD; pH 8.5

C[C@H]1COC2(CCN(c3nc(=O)c4cc(C(F)(F)F)cc([N+](=O)[O-])c4s3)CC2)O1 [BTZ043]
IC50 (DprE1 [1]): 4.5 µM

C[C@H]1COC2(CCN(c3nc(=O)c4cc(C(F)(F)F)cc(N)c4s3)CC2)O1 [BTZ045]
IC50 (DprE1 [2]): 11 µM

C[C@H]1COC2(CCN(c3nc(=O)c4cc(C(F)(F)F)cc(NO)c4s3)CC2)O1 [BTZ046]
IC50 (DprE1 [2]): 19.7 µM

B1: DprE1 (Mycolicibacterium smegmatis MC2 155) (protein)
chain: MSTTEFPTTTKRLMGWGRTAPTVASVLSTSDPEVIVRAVTRAAEEGGRGVIARGLGRSYGDNAQNGGGLVIDMPALNRIHSIDSGTRLVDVDAGVSLDQLMKAALPHGLWVPVLPGTRQVTVGGAIGCDIHGKNHHSAGSFGNHVRSMELLTANGEVRHLTPAGPDSDLFWATVGGNGLTGIILRATIEMTPTETAYFIADGDVTGSLDETIAFHSDGSEANYTYSSAWFDAISKPPKLGRAAISRGSLAKLDQLPSKLQKDPLKFDAPQLLTLPDIFPNGLANKFTFMPIGELWYRKSGTYRNKVQNLTQFYHPLDMFGEWNRAYGSAGFLQYQFVVPTEAVEEFKSIIVDIQRSGHYSFLNVFKLFGPGNQAPLSFPIPGWNVCVDFPIKAGLHEFVTELDRRVLEFGGRLYTAKDSRTTAETFHAMYPRIDEWIRIRRSVDPDGVFASDMARRLQLL
Km (purified protein [3]): 4.2 µM | Km (purified protein [4]): 110 µM | kcat (purified protein [4]): 0.212 ± 0.01 s⁻¹ | kcat/Km (purified protein [4]): 1930 ± 182 M⁻¹ s⁻¹
